From US20220380463A1 (Adimab, published 2022)
Numbering of substitutions follows the chain as printed.

B1: SAD10319_P04_H12 (ADI-57344) (antibody, V domains shown)
VH: QVQLVQSGAEVKKPGASVKVSCKASGYTFTSDHMHWVRQAPGQRLEWMGSINAGTGATKYSQKFQGRVTITRDTSASTAYMELSSLRSEDTAVYYCARDAYGHYFYDHWGQGTLVTVSS
VL: DIVMTQSPDSLAVSLGERATINCKSSQSLLNARTGKNYLAWYQQKPGQPPKLLIYWASTRESGVPDRFSGSGSGTDFTLTISSLQAEDVAVYYCKQSYSRRTFGGGTKVEIK
notes: IgG; also called Ab45
B2: SAD10320_P03_F09 (ADI-48656) (antibody, V domains shown)
VH: QVQLVQSGAEVKKPGASVKVSCKASGFNIKDYYMHWVRQAPGQRLEWMGWIDLENANTIYDAKFQGRVTITRDTSASTAYMELSSLRSEDTAVYYCARDAYGHDFYDVWGQGTLVTVSS
VL: B1 VL with S99H
notes: IgG; also called Ab101
B3: SAD10320_P01_G01 (ADI-57346) (antibody, V domains shown)
VH: B2 VH with D104S
VL: B1 VL with S99H, R100L
notes: IgG; also called Ab51
B4: SAD10320_P01_E03 (ADI-57357) (antibody, V domains shown)
VH: B2 VH with W47R, D104G
VL: B1 VL with S99R, R100H
notes: IgG; also called Ab64
B5: SAD10320_P04_F10 (ADI-57385) (antibody, V domains shown)
VH: B2 VH with R44T, E46D, H103R, D104N, F105H
VL: B1 VL with T34P, S99L, R100H
notes: IgG; also called Ab107
B6: SAD10320_P01_D03 (ADI-57356) (antibody, V domains shown)
VH: B2 VH with N28D, D104A
VL: B1 VL with S99H, R100G
notes: IgG; also called Ab63
B7: SAD10320_P04_A10 (ADI-57382) (antibody, V domains shown)
VH: B2 VH with E46D
VL: B1 VL
notes: IgG; also called Ab103
B8: SAD10320_P02_A04 (ADI-57360) (antibody, V domains shown)
VH: B2 VH with D104A
VL: B1 VL with Y98L, S99H
notes: IgG; also called Ab68
B9: SAD10320_P04_D11 (ADI-57387) (antibody, V domains shown)
VH: B2 VH with E46Q, D104V
VL: B1 VL with S99H, R100H
notes: IgG; also called Ab110
B10: SAD10320_P03_E07 (ADI-57374) (antibody, V domains shown)
VH: B2 VH with Y101V, G102H, H103R, D104Y
VL: B1 VL with S99H, R100P
notes: IgG; also called Ab92
B11: SAD10320_P02_H06 (ADI-57372) (antibody, V domains shown)
VH: B2 VH with H103R, D104N, F105H
VL: B1 VL with N37S, S99V, R100H
notes: IgG; also called Ab89
B12: SAD10320_P03_F08 (ADI-57378) (antibody, V domains shown)
VH: B2 VH
VL: B1 VL with T34P
notes: IgG; also called Ab96
B13: SAD10320_P02_A05 (ADI-57363) (antibody, V domains shown)
VH: B2 VH with D104M
VL: B1 VL with T34P, S99H, R100M
B14: SAD10320_P01_H01 (ADI-57347) (antibody, V domains shown)
VH: B2 VH with E46D, D104N
VL: B1 VL with S99H, R100K
notes: IgG; also called Ab52
B15: SAD10320_P04_A11 (ADI-57386) (antibody, V domains shown)
VH: B2 VH with E46Q, Y101R, G102H, H103R, D104Y
VL: B1 VL with R100H, R101G
notes: IgG; also called Ab109
B16: SAD10320_P01_G02 (ADI-57351) (antibody, V domains shown)
VH: B2 VH with E46Q, D104S
VL: B1 VL with S99H, R100E
notes: IgG; also called Ab57
B17: SAD10320_P01_H02 (ADI-57352) (antibody, V domains shown)
VH: B2 VH with D104S
VL: B1 VL with Y98M, S99H
B18: SAD10320_P02_H04 (ADI-57362) (antibody, V domains shown)
VH: B2 VH with E46D, D104L
VL: B1 VL with Y98H, S99M
notes: IgG; also called Ab73
B19: SAD10320_P04_E11 (ADI-57388) (antibody, V domains shown)
VH: B2 VH
VL: B1 VL with S99G, R100H
notes: IgG; also called Ab111
B20: SAD10320_P02_B04 (ADI-57273) (antibody, V domains shown)
VH: B2 VH with W47R, D104G
VL: B1 VL with S99G, R100H
notes: IgG; ADI-57273 is also printed for Ab114; also called Ab70
B21: SAD10320_P01_C02 (ADI-57348) (antibody, V domains shown)
VH: B2 VH with E46D, Y101G, G102H, H103R, D104Y
VL: B1 VL with T34P, K95G, Q96H
notes: IgG; also called Ab54
B22: SAD10320_P04_A12 (ADI-57391) (antibody, V domains shown)
VH: B2 VH with D104V
VL: B1 VL with S99H, R100H
notes: IgG; also called Ab117
B23: SAD10320_P03_D08 (ADI-57377) (antibody, V domains shown)
VH: B2 VH with D104Q
VL: B1 VL with S99H, R100T
notes: IgG; also called Ab95
B24: SAD10320_P01_F02 (ADI-57350) (antibody, V domains shown)
VH: B2 VH with W47R, D104T
VL: B1 VL with S99W, R100H
notes: IgG; also called Ab56
B25: SAD10320_P03_C09 (ADI-57381) (antibody, V domains shown)
VH: B2 VH with K23E, D104V
VL: B1 VL with S99L, R100H
notes: IgG; also called Ab99
B26: SAD10320_P02_A06 (ADI-57367) (antibody, V domains shown)
VH: B2 VH with E46P, Y101H, G102E, H103R, D104Y
VL: B1 VL with Y98H, S99L
notes: IgG; also called Ab82
B27: SAD10320_P03_C08 (ADI-57376) (antibody, V domains shown)
VH: B2 VH with K23E, R44T, E46A, D104V
VL: B1 VL with S99L, R100H
notes: IgG; also called Ab94
B28: SAD10320_P02_D06 (ADI-57368) (antibody, V domains shown)
VH: B2 VH with L45P, E46A, D104G
VL: B1 VL with S99G, R100H
notes: IgG; also called Ab85
B29: SAD10320_P03_B07 (ADI-57373) (antibody, V domains shown)
VH: B2 VH with E46A
VL: B1 VL
notes: IgG; also called Ab90
B30: SAD10320_P01_F01 (ADI-57345) (antibody, V domains shown)
VH: B2 VH with L45P, E46A, Y101S, G102H, H103R, D104Y
VL: B1 VL with K95G, Q96H
notes: IgG; also called Ab50
B31: SAD10320_P01_C03 (ADI-57355) (antibody, V domains shown)
VH: B2 VH with D104S
VL: B1 VL with S99H, R100W
notes: IgG; also called Ab62
B32: SAD10320_P02_E05 (ADI-57366) (antibody, V domains shown)
VH: B2 VH with A100M, Y101H, H103R, D104Y
VL: B1 VL with Y98E, S99H
notes: IgG; also called Ab78
B33: SAD10320_P03_H08 (ADI-57379) (antibody, V domains shown)
VH: B2 VH with D104V
VL: B1 VL with R33S, G35A, S99R, R100H
notes: IgG; also called Ab97
B34: SAD10320_P04_F11 (ADI-57389) (antibody, V domains shown)
VH: B2 VH with D104E
VL: B1 VL with S97G, Y98H
notes: IgG; also called Ab112
B35: SAD10320_P04_G11 (ADI-57390) (antibody, V domains shown)
VH: B2 VH with G102R, D104E
VL: B1 VL with S99Y, R100H
notes: IgG; also called Ab115
B36: SAD10320_P02_C05 (ADI-57365) (antibody, V domains shown)
VH: B2 VH with F27S, D104S
VL: B1 VL with S99H, R100G
notes: IgG; also called Ab76
B37: SAD10320_P02_B05 (ADI-57364) (antibody, V domains shown)
VH: B2 VH with D104N
VL: B1 VL with S99T, R100H
notes: IgG; also called Ab75
B38: SAD10320_P03_A09 (ADI-57380) (antibody, V domains shown)
VH: B2 VH with D104V
VL: B1 VL with Y98S, S99H
notes: IgG; also called Ab98
B39: SAD10320_P04_E10 (ADI-48657) (antibody, V domains shown)
VH: B2 VH with L45P
VL: B1 VL
notes: IgG; also called Ab106
B40: SAD10320_P01_G03 (ADI-57358) (antibody, V domains shown)
VH: B2 VH with L45P, D104S
VL: B1 VL with S99H, R100W
notes: IgG; also called Ab66
B41: SAD10320_P01_H03 (ADI-57359) (antibody, V domains shown)
VH: B2 VH with L45P, Y101A, G102H, H103R, D104Y
VL: B1 VL with T34P, G35R, Y98H, S99D
notes: IgG; also called Ab67
B42: SAD10320_P04_D12 (ADI-57392) (antibody, V domains shown)
VH: B2 VH
VL: B1 VL with R100H
notes: IgG; also called Ab118
B43: SAD10320_P02_E06 (ADI-57369) (antibody, V domains shown)
VH: B2 VH with G8E, E46Q, D104G
VL: B1 VL with T34P
notes: IgG; also called Ab86
B44: SAD10320_P04_C10 (ADI-57383) (antibody, V domains shown)
VH: B2 VH with D104A
VL: B1 VL with S99H, R100Q
notes: IgG; also called Ab104
B45: SAD10320_P04_G10 (ADI-48658) (antibody, V domains shown)
VH: B2 VH
VL: B1 VL
notes: IgG; also called Ab108
B46: SAD10320_P04_D10 (ADI-57384) (antibody, V domains shown)
VH: B2 VH with K23E, L45P, D104V
VL: B1 VL with S99L, R100H
notes: IgG; also called Ab105

Target: T1, Cynomolgus CD3εδ Fc heterodimer (Cy CD3ε Fc / CD3δ Fc-HIS) (cynomolgus, UniProt Q95LI8 22-100)
T1 chain 1: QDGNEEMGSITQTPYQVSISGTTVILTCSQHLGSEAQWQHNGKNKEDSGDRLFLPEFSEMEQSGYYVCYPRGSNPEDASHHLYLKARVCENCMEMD
T1 chain 2: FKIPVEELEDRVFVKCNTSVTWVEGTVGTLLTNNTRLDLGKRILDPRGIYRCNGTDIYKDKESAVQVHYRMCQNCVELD
Assay: BLI (Octet), IgG on AHC sensor, pH 6.0

Binder	koff [s⁻¹]
B1	0.0047
B2	0.00719
B3	0.0144
B4	0.0223
B5	0.00239
B6	0.00263
B7	0.0144
B8	0.0182
B9	0.00338
B10	0.00699
B11	0.00281
B12	0.00268
B13	0.0168
B14	0.0207
B15	0.00741
B16	0.0197
B17	0.00334
B18	0.0278
B19	0.00297
B20	0.0176
B21	0.00277
B22	0.0168
B23	0.00194

Binder	koff [s⁻¹]
B24	0.0194
B25	0.0051
B26	0.00264
B27	0.0152
B28	0.00621
B29	0.00224
B30	0.00642
B31	0.0195
B32	0.00318
B33	0.015
B34	0.00192
B35	0.00276
B36	0.0207
B37	0.00269
B38	0.0029
B39	0.00258
B40	0.0215
B41	0.00291
B42	0.00259
B43	0.0303
B44	0.0187
B45	0.0189
B46	0.0171
